Reference: patent US20250092146A1, “ANTI-CCR8 ANTIBODIES, CONJUGATES, AND USES THEREOF” (Abilita Bio, Inc., priority 2023, published 2025)
Where a chain is given by its changes, count along the chain named. In names and notes the source's numbering stands.

B1: VHH-3: llama anti-hCCR8 VHH, SEQ ID NO: 29 (protein)
VHH: QVQLQESGGGLVQAGGSLRLSCVASGSTSSIRRIGWYRQAPGKQRELVARFSSGGGTNYADFVKGRFTISGDNAKNTMYLQMNSLKPEDTAVYYCGARRLLGTSRVDYWGQGTQVTVSS
B2: VHH-1-mFc: VHH-1 fused to hinge of mouse IgG2a Fc, SEQ ID NO: 239 (protein)
chain: QVQLQESGGGLVQAGGSLRLSCVASGSTSSIRRIGWYRQAPGKQRELVARFSSGGGTNYADFVKGRFTISGDNAKNTMYLQMNSLKPEDTAVYYCSARRLLGTSRVDYWGQGTQVTVSSEPRGPTIKPCPPCKCPAPNLLGGPSVFIFPPKIKDVLMISLSPIVTCVVVDVSEDDPDVQISWFVNNVEVHTAQTQTHREDYNSTLRVVSALPIQHQDWMSGKEFKCKVNNKDLPAPIERTISKPKGSVRAPQVYVLPPPEEEMTKKQVTLTCMVTDFMPEDIYVEWTNNGKTELNYKNTEPVLDSDGSYFMYSKLRVEKKNWVERNSYSCSVVHEGLHNHHTTKSFSRTPGK
B3: VHH-2: llama anti-hCCR8 VHH, SEQ ID NO: 28; in Tables 12 and 13 tested as human IgG1 Fc fusion (protein)
VHH: QVQLQESGGGLVQAGGSLRLTCAVSGSTSTINRFAWYRQAPGKQRELVAATSSRTSPNYADSVKGRFRFSRDNARSAVYLQMDNLRPEDTAVYFCQARMAMGSSQVVYWGLGTQVTVSS
B4: VHH-2.2: humanized VHH-2, version 2, SEQ ID NO: 110 (protein)
VHH: EVQLVESGGGLVQPGGSLRLSCAVSGSTSTINRFAWYRQAPGKGLEWVAATSSRTSPNYADSVKGRFTFSRDNSKNTVYLQMNSLRAEDTAVYYCQARMAMGSSQVVYWGQGTTVTVSS
B5: VHH-2.3: humanized VHH-2, version 3, SEQ ID NO: 111; Table 13 tested as Fc fusion (protein)
VHH: B4 VHH with L45R, W47L
B6: VHH-2.1: humanized VHH-2, version 1, SEQ ID NO: 109 (protein)
VHH: B4 VHH with V24A, Y37V, A49S, F69I, V78L, Q96A, A97K
B7: VHH-1.2: humanized VHH-1, version 2, SEQ ID NO: 107 (protein)
VHH: EVQLVESGGGLVQPGGSLRLSCAASGSTSSIRRIGWYRQAPGKGLEWVARFSSGGGTNYADSVKGRFTISGDNSKNTMYLQMNSLRAEDTAVYYCSARRLLGTSRVDYWGQGTTVTVSS
B8: VHH-1.3: humanized VHH-1, version 3, SEQ ID NO: 108; Table 13 tested as Fc fusion (protein)
VHH: B7 VHH with L45R, W47L
B9: VHH-1.1: humanized VHH-1, version 1, SEQ ID NO: 106 (protein)
VHH: B7 VHH with Y37V, A49S, G71R, M78L, S96A, A97K
B10: VHH-1.3-2: VHH-1.3 variant L110V, SEQ ID NO: 187; tested as Fc fusion (protein)
VHH: B7 VHH with L45R, W47L, L101V

Experiments:
hCCR8 [1] = biological target: T1, hCCR8 (Homo sapiens, UniProt P51685); assay: Flow cytometry binding of purified VHHs to HEK293 cells expressing hCCR8; conditions: monovalent VHH, FIG. 1
T1 construct: expressed in transfected cells
T1 sequence (P51685 whole entry): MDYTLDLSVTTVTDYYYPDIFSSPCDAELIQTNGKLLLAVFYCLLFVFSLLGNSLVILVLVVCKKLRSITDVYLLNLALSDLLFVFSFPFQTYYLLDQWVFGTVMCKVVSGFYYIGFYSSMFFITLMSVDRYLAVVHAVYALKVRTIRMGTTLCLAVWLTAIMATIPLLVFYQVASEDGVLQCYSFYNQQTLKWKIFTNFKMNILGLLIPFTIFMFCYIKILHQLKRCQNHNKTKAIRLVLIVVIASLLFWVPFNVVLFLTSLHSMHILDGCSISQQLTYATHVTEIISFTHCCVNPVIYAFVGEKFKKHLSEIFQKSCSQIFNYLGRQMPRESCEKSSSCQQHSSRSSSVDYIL
Description: Recombinant cells expressing hCCR8 were resuspended to a final concentration of 1.0×10^6 cells/ml in FACS buffer. Surface expression of hCCR8 on transiently transfected HEK293 cells was confirmed by flow cytometry of HEK293 cells stained with PE anti-hCCR8 (Clone 433H, BD Biosciences, #566897) antibody. Dilutions of purified VHHs were incubated with cells for 60 min. Individual samples were distributed into 96-well v-bottom plates and incubated for one hour at 4° C. Bound VHH were then detected with an anti-VHH specific antibody (Goat anti-alpaca VHH, Jackson ImmunoResearch, #128-605-232). […] Binding was determined in parallel on HEK293 cells stably expressing the closely related receptor hCCR7 (SEQ ID NO: 41), as control for binding specificity.

[2] = tested on: MC38 mouse colon cancer cells; assay: MC38 tumor growth inhibition study in human CCR8 transgenic mice; type: in vivo; conditions: 30 mg/kg IV 3 times per week, Day 16, p=0.0169
Description: Human CCR8 transgenic (hCCR8-tg) mice (#110096, Biocytogen, China) were inoculated with MC38 mouse colon cancer cells subcutaneously. After the average tumor size reached approximately 150 mm3, mice were randomized based on tumor size and treatment was initiated. Mice were treated IV 3 times per week with 30 mg/kg VHH-1-mFc (SEQ ID NO: 239) or an IgG2a Fc control (recombinant IgG2a Fc, #BE0097, BioXcell). Tumor volume was measured twice per week using a caliper, and the volume expressed in mm3 using the formula: V (mm3)=(a×b2)/2 where a and b were the long and short diameters of the tumor, respectively. The tumor size was then used for calculations of tumor growth inhibition (T/C) values (where T was the treatment group and C is the control group). The T/C value (in percent) is an indication of antitumor effectiveness; T and C were the mean volume of the treated and control groups, respectively, on a given day. […] To determine whether group treated with various test articles had statistically significant anti-tumor effects compared to the mouse IgG2a Fc control, the MC38 tumor volumes were analyzed by one-way ANOVA and multiple comparison test at day 16. […] In addition, the tumor growth inhibition (TGI) was also calculated during the study until Day 16. On Day 16, the TGIs for VHH-1-mFc were 50.3%, (p=0.0169).

hCCR8 [3] = biological target: T1, hCCR8; assay: Flow cytometry binding of VHH-Fc fusion antibodies to hCCR8 on stably transfected HEK293 cells; conditions: for binding to hCCR8 expressed on HEK293 cells (in words): as Fc fusion antibodies
Description: VHH-Fc fusion antibodies were evaluated for their ability to bind to hCCR8 on stably transfected HEK293 cells by means of flow cytometry. Cells were incubated with different concentrations of the bivalent VHH-Fc fusions for 60 minutes at 4° C., followed by two washes with FACS buffer, followed by 30 minutes incubation at 4° C. with the Zenon R-Phycoerythrin Anti-human IgG (ThermoFisher Scientific, #Z-25455), and two additional washing steps. Data were plotted and fit using GraphPad Prism software. EC50 and Bmax values individual antibodies were calculated from the resulting dose-response curves. Bivalent VHH-Fc fusions (Seq ID NOs: 31, 33, and 87-103) of 19 different VHH domains (SEQ ID NOs: 27, 28, and 70-86) were tested for cell binding and results are shown in Table 7. […]
(§1) VHH-Fc fusion DNA constructs were then generated comprising encoding humanized VHH sequences (SEQ ID NOs: 106-111) fused in frame to the human IgG1 (SEQ ID NO: 34) directly to the short hinge sequence in the pFuse expression vector, and were expressed, purified and analyzed for binding to HEK293 cells expressing human CCR8 as in Example 5. Binding curves for VHH-Fc antibodies comprised of parental VHH-1 and the humanized VHH derivatives VHH-1.2-Fc and VHH-1.3-Fc are shown in FIG. 9A. Binding curves for VHH-Fc antibodies comprised of parental VHH-2 and the humanized VHH derivatives VHH-2-Fc, VHH-2.2-Fc and VHH-2.3-Fc, are shown in FIG. 9B. Cell binding EC50 values, normalized Bmax (relative to respective parental clone) data and humanizing mutations are shown in Table 10 below.
Approaches such as in vitro affinity maturation and rational mutagenesis can be performed to regain binding affinity and/or stability lost through humanization. In vitro affinity maturation generally involves building and amino acid substitution library where amino acid positions are varied across the CDRs and/or framework at a defined set of positions using sets of amino acids chosen to introduce new chemical diversity. The paratope residues within the CDR regions are of course key to antigen binding and care must be taken not to disrupt important structures while attempting to evolve improve antibody behavior. One approach to identify positions that are important to the maintenance of binding properties is to perform paratope mapping using single scanning alanine substitutions across antibody CDR regions. In this approach, residues that are critical to the maintenance of antibody binding to the antigen can be identified and at the same time permissive sites can be identified where it may be possible to make substitutions of other amino acids desirable for subsequent affinity maturation library construction. Site directed mutagenesis was used to make single alanine substitutions at each residue in the CDRs of VHH-1 (SEQ ID NO: 27) and VHH-2 (SEQ ID NO: 28). Changes in VHH-1 CDR amino acids to alanine are indicated in Table 11 (SEQ ID NOs: 112-137) and for VHH-2 CDRs (SEQ ID NO: 138-162) in Table 12. Mutation positions and residue changes to alanine with respect to the in the parental VHH sequences are referenced by their IMGT position. VHH domains containing the indicated modified CDR-1, CDR-2 or CDR-3 domains were used to construct Fc fusions by direct grafting to the short hinge of the human Fc domain (SEQ ID NO: 34). VHH-Fc constructs were expressed, purified and analyzed for binding to HEK293 cells expressing hCCR8 and the results are reported in Table 11 and Table 12. EC50 values are reported for each Fc fusion antibody containing a modified CDR, along with its respective Bmax value normalized to the to the matched wild type VHH-1-Fc or VHH-2-Fc fusion antibody.

[4] = biological target: T2, HuT-78 cells that naturally express human CCR8 (Homo sapiens, UniProt P51685); assay: Flow cytometry binding of yeast-display optimized VHH-Fc antibodies to HuT-78 cells; conditions: Table 13; for EC50: clones tested as VHH-Fc fusions (human IgG1 Fc), HuT-78 cells; for Normalized Bmax (%): normalized to VHH-1 or VHH-2 depending on clone family
T2 construct: HuT-78 cells that naturally express human CCR8 were used as target cells; endogenous in cells; host or cells: HuT-78
T2 sequence (P51685 whole entry, the tested form may be a part): as the sequence (P51685 whole entry) above
Excerpt: Top VHH sequences were chosen from the FACS sorted populations based on an analysis of improved binding performance relative to the parental sequences and evidence of sequence enrichment by NGS. Candidate VHH were then cloned as VHH-Fc fusions to the short hinge of the IgG1 Fc domain (SEQ ID NO: 34), expressed in HEK293 cells as described earlier and purified for binding evaluation. Bmax values are shown as normalized to VHH-1 or VHH-2 depending on the clone family. […] Mutations are referenced by position according to the IMGT definition.

[5] = Production and purification of humanized VHH-Fc from cells; conditions: most humanized variants
Excerpt: as §1
Humanization within the framework regions of VHH and other antibodies is known to often have negative impacts of on protein properties such as destabilization of the VHH fold or loss of binding affinity. This is most common when humanized versions of antibodies are constructed by “CDR grafting”, where the individual CDRs are transferred directly to a fully human framework.

Molecule | EC50 [4] [nM] | Normalized Bmax (%) [4] [%] | binding to hCCR8 expressed on HEK293 cells (in words) (hCCR8 [3]) | also measured
B1 |  |  |  | binding specificity hCCR8 vs human CCR7 (hCCR8 [1]): specific binding to hCCR8 overexpressed in HEK293 cells and not to human CCR7
B2 |  |  |  | fold smaller tumor volume than isotype control [2]: 1.8 fold; tumor growth inhibition (TGI) [2]: 50.3%
B3 | 0.24 | 100.0 |  | EC50 (hCCR8 [3]; Table 12, VHH-2 CDR alanine mutants as human Fc fusions, HEK293 hCCR8): 1.3 nM; % Bmax (hCCR8 [3]; Table 12, normalized to wild type VHH-2-Fc): 100%
B4 |  |  | maintained their hCCR8 binding properties | 
B5 | 1.19 | 88.8 | maintained their hCCR8 binding properties | 
B6 |  |  |  | stability / producibility after humanization [5]: could not be produced and purified from cells
B7 |  |  | maintained their hCCR8 binding properties | 
B8 | 5.46 | 88.6 | maintained their hCCR8 binding properties | 
B9 |  |  |  | stability / producibility after humanization [5]: could not be produced and purified from cells
B10 | 2.21 | 115.7 |  | 
